Data reported in paper PMC11182015, “Cytosolic RNA binding of the mitochondrial TCA cycle enzyme malate dehydrogenase”.

Biological target: T1, MDH2 preprotein (malate dehydrogenase 2, mitochondrial), with N-terminal MTS (Homo sapiens, UniProt P40926 1-338)
T1 sequence: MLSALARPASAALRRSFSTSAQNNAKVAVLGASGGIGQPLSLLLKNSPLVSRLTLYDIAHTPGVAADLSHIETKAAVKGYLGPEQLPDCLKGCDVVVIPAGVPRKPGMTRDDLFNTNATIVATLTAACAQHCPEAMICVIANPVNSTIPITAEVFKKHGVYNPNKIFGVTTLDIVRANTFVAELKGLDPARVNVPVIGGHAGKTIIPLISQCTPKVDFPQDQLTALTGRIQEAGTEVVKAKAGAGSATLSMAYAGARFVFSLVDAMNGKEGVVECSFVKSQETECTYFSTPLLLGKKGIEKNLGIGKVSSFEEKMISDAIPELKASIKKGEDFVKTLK
Test: EMSA; RNA 10 nM; EMSA: 10 mM Tris-HCl pH 7.5, 150 mM NaCl, 20% glycerol, 0.5 mM DTT, 5 mM MgCl2, 0.01 ug/uL BSA, 25 C 20 min; 10 nM Cy5-RNA; native 4-15% Tris-glycine gel
Details: protein: recombinant; tags: C-terminal Strep-II; label: Cy5

AUAUUUAGCUCAGGCCCGUGGCGCC (ssRNA) [RPS23 5'-UTR control probe] gave a Kd of 1500 nM.
